Assay results published in patent US20250027068.

B1: PRT-502 (protein)
chain: MITSVWTKGVTPPTDFIKGEDVFHAPYKAGQGWYDITKAFDGGDDLLCGAATAGNMLHWWFDQNKEYIEAYLKKHPEKQKIMFGDQELLDVRKAINTKGSQKNSELFNYFRDKAFPNLSARRLGVMPDLVLDMFINGYYLNVTKTQTTDVNRQEQEKDKRGGIFDAVFGRGDQTKLLTSRHDFKEKGLNEISQLIKQELTEGKALGLSHTYANVRINHVINLWGADFDADGNLEAIYVTDSDSNASIGMKKYFVGVNSAGKVAISAKEIKEDNIGAQVLGLFTLSTGQKIWNKTNLEHHHHHH
B2: PRT-494 (protein)
chain: MVTSVWTKGVTPPTDFIKGEDVFHAPYKAGQGWYDITKTFNGKDDLLCGAATAGNMLHWWFDQNKEYIEAYLKKHPEKQKIMFGDQELLDVRKAINTKGSQKNSELFNYFRDKAFPNLSARRLGVMPDLVLDMFINGYYLNVTKTQTTDVNRTYQEKDKRGGIFDAVFTRGDQSKLLTSRHDFKEKGLKEISDLIKQELTEGKALGLSHTYANVRINHVINLWGADFDSDGNLKAIYVTDSDSNASIGMKKYFVGVNSAGKVAISAKEIKEDNIGAQVLGLFTLSTGQDIWNQTNLEHHHHHH
B3: PRT-618 (protein)
chain: MQITSVWTKGVIPLTPEQFRYNNEDVIHAPYLPHQGWYDITKAFDGGDNLLCGAATAGNMLHWWFDQNKTEIEAYLSKYPEKQKIIFNNQELFDLRAAINTKDSQTNSQLFNYFRDKAFPNLSARQLGVMPDLVLDMFINGYYLNVFKTQSTDVNRPYQDRDKRGGIFDHVFGRGDQTTLLTARHDLKNGGLNDISTIIKQELQSGRALALSHTYANVSISHVINLWGADFNAEGNLEAIYVTDSDANSSIGMKKYYVGINAHGHVAISAKKIEGENIGAQVLGLFTLSSGKEIWQKLSLEHHHHHH
B4: PRT-670 (protein)
chain: MQITSVWTKGVTPLTPEQFRNNNEDVFHAPYLPNQGWYDITKAFNGKDNLLCGAATAGNMLHWWFDQNKEEIEAYLKKYPEKQKIIFNNQELFDLRKAINTKDSQTNSALFNYFRDKAFPNLSARQLGVMPDHVLDMFINGYYLNVGKTQSTDVNRPYQDKDKRGGIFDHVFNRGDQTKLLTARHDLKNKTLNDISTLIKQELSSGKALALSHTYANVGISHVINLWGADFNAEGNLEAIYVTDSDDRASIGMKKYYVGRNASGHVAISAKKIEGENLGAQVLGLFTLSSGKEIWQKLSLEHHHHHH
B5: PRT-454 (protein)
chain: MITSVWTKGVTPPTDFIKGEDVFHAPYKAGQGWYDITKAFDGGDDLLCGAATAGNMLHWWFDQNKDQIEAYLKEHPEKQKINFNGEQMFDVKEAIDTKDDQTNSELFNYFKEKAFPYLSTKHLGVFPDHVLDMFINGYRLSLTNHGPTPVKRQEKDPRGGIFDAVFGRGDQTKLLTSRHDFKEKTLNEISQLIKQELTEGKALALSHTYANVRINHVINLWGADFDAEGNLEAIYVTDSDSNASIGMKKYFVGVNSAGKVAISAKEIEDDNIGAQVLGLFTLSTGQKIWNKTNLEHHHHHH
B6: PRT-448 (protein)
chain: MVTSVWTKGVTPPTDFIKGEDVFHAPYKAGQGWYDITKTFNGKDDLLCGAATAGNMLHWWFDQNKDQIEAYLKEHPEKQKINFNGEQMFDVKEAIDTKDDQTNSKLFEYFKEKAFPYLSTKHLGVFPDHVLDMFINGYRLSLTNHGPTPVKEGSKDPRGGIFDAVFTRGDQSKLLTSRHDLKNKTLKEISDLIKQELTEGKALALSHTYANVRINHVINLWGADFDSNGNLEAIYVTDSDSNASIGMKKYFVGVNSAGKVAISAKEIEDDNIGAQVLGLFTLSTGQDIWNQTNLEHHHHHH
B7: PRT-478 (protein)
chain: MITSVWTKGVTPPTDFIYGEDVLHAPYKAGQGWYDITKAFDGGDDLLCGAATAGNMLHWWFDQNKEQIENYLKKHPEKQKINFNGEQMFDVKEAIDTKDSQTNSELFNYFKEKAFPYLSTKHLGVFPDHVIDMFINGYRLSLTNHGPTPVKRQEKDPRGGIFDAVFGRGDQTKLLTNRHDFKEKTLNEISQLIKQELTEGKALGISHTYANVRINHVINLWGADFDAEGNLEAIYVTDSDSNASIGMKKYFVGVNSNGKVAISAKEIEEDNIGAQVLGLFTLSTGQKIWNKTNLEHHHHHH
B8: PRT-476 (protein)
chain: MVTSVWTKGVTPPTNFTYGEDVLHAPYVANQGWYDITKAFDGGDDLLCGAATAGNMLHWWFDQNKEQIENYLKKHPEKQKINFNGEQMFDVKEAIDTKDSQTNSELFNYFKEKAFPYLSTKHLGVFPDHVIDMFINGYRLSLTNHGPTPVKRGSKDPRGGIFDAVFTRGDQSKLLTNRHDLKNKTLKEISDLIKQELTEGKALGISHTYANVRINHVINLWGADFDAEGNLEAIYVTDSDSNASIGMKKYFVGVNSNGKVAISAKEIEEDNIGAQVLGLFTLSTGQDIWNQTNLEHHHHHH
B9: PRT-466 (protein)
chain: MITSVWTKGVTPPTDFIKGEDVFHAPYKAGQGWYDITKAFDGGDDLLCGAATAGNMLHWWFDQNKDQIERYLKEHPEKQKINFNGEQMFDVKEAIDTKDSQTNSELFNYFKEKAFPYLSTKHLGVFPDHVLDMFINGYRLSLTNHGPTPVKRQEKDPRGGIFDAVFGRGDQTKLLTSRHDFKEKTLNEISQLIKQELTEGKALGLSHTYANVRINHVINLWGADFDAEGNLEAIYVTDSDSNASIGMKKYFVGVNSAGKVAISAKEIKEDNIGAQVLGLFTLSTGQKIWNKTNLEHHHHHH
B10: PRT-460 (protein)
chain: MVTSVWTKGVTPPTDFIKGEDVFHAPYKAGQGWYDITKTFNGKDDLLCGAATAGNMLHWWFDQNKDQIERYLKEHPEKQKINFNGEQMFDVKEAIDTKDSQTDSKLFEYFKEKAFPYLSTKHLGVFPDHVLDMFINGYRLSLTNHGPTPVKEGSKDPRGGIFDAVFTRGDQSKLLTSRHDLKNKTLKEISDLIKQELTEGKALGLSHTYANVRINHVINLWGADFDSEGNLKAIYVTDSDSNASIGMKKYFVGVNSAGKVAISAKEIKEDNIGAQVLGLFTLSTGQDIWNQTNLEHHHHHH

target: pooled human IgG (human IgG1,2,3 and 4)

**Q.** What does the source list for B1?
**A.** Enzyme Activity Endpoint Assay: Fab′2: 307 ng/µL; Enzyme Activity Endpoint Assay: Fc: 283 ng/µL; Enzyme Activity Endpoint Assay: IgG: 66 ng/µL; Enzyme Activity Endpoint Assay: scIgG: 296 ng/µL

**Q.** Which Enzyme Activity Endpoint Assay: Fab′2 does the source give for B2 here?
**A.** The Enzyme Activity Endpoint Assay: Fab′2 was 1210 ng/µL.

**Q.** What about the Enzyme Activity Endpoint Assay: Fc of the same protein?
**A.** The Enzyme Activity Endpoint Assay: Fc was 489 ng/µL.

**Q.** And the Enzyme Activity Endpoint Assay: IgG?
**A.** Its Enzyme Activity Endpoint Assay: IgG is 0 ng/µL.

**Q.** What about the Enzyme Activity Endpoint Assay: scIgG of the same protein?
**A.** Its Enzyme Activity Endpoint Assay: scIgG is 0 ng/µL.

**Q.** What does the source list for B3?
**A.** Enzyme Activity Endpoint Assay: Fab′2: 976 ng/µL; Enzyme Activity Endpoint Assay: Fc: 419 ng/µL; Enzyme Activity Endpoint Assay: IgG: 0 ng/µL; Enzyme Activity Endpoint Assay: scIgG: 0 ng/µL

**Q.** B4 was tested. Which Enzyme Activity Endpoint Assay: Fab′2 did it give?
**A.** Its Enzyme Activity Endpoint Assay: Fab′2 is 0 ng/µL.

**Q.** What about the Enzyme Activity Endpoint Assay: Fc of the same protein?
**A.** Its Enzyme Activity Endpoint Assay: Fc is 174 ng/µL.

**Q.** What about the Enzyme Activity Endpoint Assay: IgG of the same protein?
**A.** The Enzyme Activity Endpoint Assay: IgG was 594 ng/µL.

**Q.** And the Enzyme Activity Endpoint Assay: scIgG?
**A.** Its Enzyme Activity Endpoint Assay: scIgG is 798 ng/µL.

**Q.** For B5, which Enzyme Activity Endpoint Assay: Fab′2 is on record?
**A.** The Enzyme Activity Endpoint Assay: Fab′2 was 217 ng/µL.

**Q.** What about the Enzyme Activity Endpoint Assay: Fc of the same protein?
**A.** Its Enzyme Activity Endpoint Assay: Fc is 317 ng/µL.

**Q.** What about the Enzyme Activity Endpoint Assay: IgG of the same protein?
**A.** Its Enzyme Activity Endpoint Assay: IgG is 94 ng/µL.

**Q.** And the Enzyme Activity Endpoint Assay: scIgG?
**A.** The Enzyme Activity Endpoint Assay: scIgG was 653 ng/µL.

**Q.** Which Enzyme Activity Endpoint Assay: Fab′2 does the source give for B6 here?
**A.** The Enzyme Activity Endpoint Assay: Fab′2 was 0 ng/µL.

**Q.** And the Enzyme Activity Endpoint Assay: Fc?
**A.** The Enzyme Activity Endpoint Assay: Fc was 0 ng/µL.

**Q.** And the Enzyme Activity Endpoint Assay: IgG?
**A.** Its Enzyme Activity Endpoint Assay: IgG is 2150 ng/µL.

**Q.** What about the Enzyme Activity Endpoint Assay: scIgG of the same protein?
**A.** Its Enzyme Activity Endpoint Assay: scIgG is 0 ng/µL.

**Q.** B7 was tested. Which Enzyme Activity Endpoint Assay: Fab′2 did it give?
**A.** The Enzyme Activity Endpoint Assay: Fab′2 was 509 ng/µL.

**Q.** What about the Enzyme Activity Endpoint Assay: Fc of the same protein?
**A.** The Enzyme Activity Endpoint Assay: Fc was 453 ng/µL.

**Q.** And the Enzyme Activity Endpoint Assay: IgG?
**A.** The Enzyme Activity Endpoint Assay: IgG was 216 ng/µL.

**Q.** What about the Enzyme Activity Endpoint Assay: scIgG of the same protein?
**A.** Its Enzyme Activity Endpoint Assay: scIgG is 362 ng/µL.

**Q.** For B8, which Enzyme Activity Endpoint Assay: Fab′2 is on record?
**A.** Its Enzyme Activity Endpoint Assay: Fab′2 is 0 ng/µL.

**Q.** And the Enzyme Activity Endpoint Assay: Fc?
**A.** The Enzyme Activity Endpoint Assay: Fc was 0 ng/µL.

**Q.** What about the Enzyme Activity Endpoint Assay: IgG of the same protein?
**A.** The Enzyme Activity Endpoint Assay: IgG was 2090 ng/µL.

**Q.** What about the Enzyme Activity Endpoint Assay: scIgG of the same protein?
**A.** Its Enzyme Activity Endpoint Assay: scIgG is 0 ng/µL.

**Q.** What does the source list for B9?
**A.** Enzyme Activity Endpoint Assay: Fab′2: 404 ng/µL; Enzyme Activity Endpoint Assay: Fc: 362 ng/µL; Enzyme Activity Endpoint Assay: IgG: 161 ng/µL; Enzyme Activity Endpoint Assay: scIgG: 303 ng/µL

**Q.** How did the Enzyme Activity Endpoint Assay: Fab′2 turn out when B10 was run?
**A.** Its Enzyme Activity Endpoint Assay: Fab′2 is 49 ng/µL.

**Q.** What about the Enzyme Activity Endpoint Assay: Fc of the same protein?
**A.** Its Enzyme Activity Endpoint Assay: Fc is 108 ng/µL.

**Q.** And the Enzyme Activity Endpoint Assay: IgG?
**A.** The Enzyme Activity Endpoint Assay: IgG was 26 ng/µL.

**Q.** What about the Enzyme Activity Endpoint Assay: scIgG of the same protein?
**A.** The Enzyme Activity Endpoint Assay: scIgG was 64 ng/µL.
